Test results: patent EP4792821A2 (Beijing Youcare Kechuang Pharmaceutical Technology Co., Ltd., dated 2026)
*1 amine or outer side, *2 acyl side, *3 side chain or, on linkers, in order; H or OH if unused. Where no end group is shown, it is not given here. Side-chain parts run from the residue outwards. The star is where a group is joined. Succinyl(4-O-cholesteryl) = CC(C)CCC[C@@H](C)[C@H]1CC[C@H]2[C@@H]3CC=C4C[C@@H](OC(=O)CCC(=O)*)CC[C@]4(C)[C@H]3CC[C@]12C; Suc = O=C(CCC(=O)[*:2])[*:1]

B1: Compound 44 (peptide)
peptide: WDEFDKKIEEVNKKIEESLKKIEESDKKLHNVEAAAKK
modifications: N-terminal acetyl (Ac-); C-terminal lysine side chain carries cholesteryl hemisuccinate, K(Chol); C-terminal amide (-NH2)
B2: Compound 13 (peptide)
peptide: WDEFDKKIEEVNKKIEESLKKIEESDKKLEAAAKK
modifications: N-terminal acetyl (Ac-); C-terminal lysine side chain carries cholesteryl hemisuccinate, K(Chol); C-terminal amide (-NH2)
B3: Compound 14 (peptide)
peptide: DEFDKKIEEVNKKIEESLKKIEESDKKLEEVNEAAAKK
modifications: N-terminal acetyl (Ac-); C-terminal lysine side chain carries cholesteryl hemisuccinate, K(Chol); C-terminal amide (-NH2)
B4: Compound 15 (peptide)
peptide: DEFDKKKIEEVNKKIEESLKKIEESDKKLEEVGSGSGK
modifications: N-terminal acetyl (Ac-); C-terminal lysine side chain carries cholesteryl hemisuccinate, K(Chol); C-terminal amide (-NH2)
B5: Compound 18 (peptide)
peptide: B4 peptide
modifications: N-terminal acetyl (Ac-); C-terminal lysine side chain carries cholesteryl hemisuccinate, K(Chol); C-terminal amide (-NH2)
B6: Compound 45 (peptide)
peptide: WDEFDASISQVNEKINQSLEEIRKSDELLHNEAAAKK
modifications: N-terminal acetyl (Ac-); C-terminal lysine side chain carries cholesteryl hemisuccinate, K(Chol); C-terminal amide (-NH2)

Columns and labels:
Assay in all cases: cell-based or functional assay
[1] = target: F protein of RSV A long virus strain (Respiratory Syncytial Virus (RSV) A …, UniProt P12568 26-574)
[2] = target: F protein of hMPV virus strain A2 (human metapneumovirus (hMPV) A2)
[3] = target: F protein of hMPV virus strain B1 (human metapneumovirus (hMPV) B1)
[4] = target: F protein of hPIV Type 3 (hPIV3 C243) (human Parainfluenza Virus type 3 (hPIV3 …))

Sequence of F protein of RSV A long virus strain (P12568 26-574): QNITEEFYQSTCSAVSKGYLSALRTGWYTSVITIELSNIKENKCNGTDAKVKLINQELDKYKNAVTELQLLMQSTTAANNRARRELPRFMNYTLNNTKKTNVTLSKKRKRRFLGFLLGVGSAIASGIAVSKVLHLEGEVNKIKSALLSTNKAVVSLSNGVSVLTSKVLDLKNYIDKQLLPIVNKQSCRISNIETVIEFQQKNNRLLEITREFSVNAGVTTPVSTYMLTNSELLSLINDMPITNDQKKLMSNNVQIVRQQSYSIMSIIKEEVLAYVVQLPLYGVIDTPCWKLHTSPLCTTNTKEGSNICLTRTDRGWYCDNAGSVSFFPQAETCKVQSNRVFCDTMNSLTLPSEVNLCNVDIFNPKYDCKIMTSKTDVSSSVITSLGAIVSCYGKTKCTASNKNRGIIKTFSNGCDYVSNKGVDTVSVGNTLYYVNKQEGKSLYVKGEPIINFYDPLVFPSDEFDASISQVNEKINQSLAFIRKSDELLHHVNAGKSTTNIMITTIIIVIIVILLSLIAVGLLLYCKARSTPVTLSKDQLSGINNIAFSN

Binder	IC50/nM, plaque reduction, RSV A long on HEp-2 cells (Table 2, Cell fusion inhibition activity) [1] [nM]	EC50 (nM), plaque reduction, hMPV A2 on Vero cells [2] [nM]	EC50 (nM), plaque reduction, hMPV B1 on Vero cells [3] [nM]	EC50 (nM), plaque reduction, hPIV3 C243 on LLC-MK2 cells [4] [nM]
FDASISQVNEKINQSLAFIRKSDELLHNVNAGKSTTEAAAKK (not fully specified; also: modifications not known) [Positive polypeptide 7]	> 300			
VFPSDEFDASISQVNEKINQSLAAIRKSDELLHNV (not fully specified; also: modifications not known) [Positive polypeptide 6]	> 300			
Ac-SLEQVNKINKKIDKIEESLKKIEESDKKSLEVNKKLEAAAKK-NH2 [Compound 47]	> 8000			
Ac-ADAFRLEVNDASSKINESIEESLLSLEKLHNVNATA-NH2 [Compound 6]	> 8000			
Ac-WDEFDKKIEEVNKKIEESLKKIEESDKKLEEVNKKL-NH2 [Compound 5]	1120			
Ac-SLEQVNKINEKINKISQSLKKIEESDKKSDEVNAGLEAAAKK-NH2 [Compound 48]	> 8000			
B1	12.4	14.6	6.6	27.9
SLEQVNKKIEQSLKFIEKSDKLLENGSGSGK (not fully specified; also: modifications not known) [Positive polypeptide 1]	150			
Ac-FDAFIQEINVNEDQSLEQSDELLLELHLLHSLLH-NH2 [Compound 7]	> 8000			
B2	13	11.7	6.18	35.6
Ac-IEQVNKKIEQSLKFIEKSDKLLENVNKGK-NH2 [Positive polypeptide 2]	> 300			
IEQVNKKIEQSLKFIEKSDKLLENVNKGKCEAAAKK (not fully specified; also: modifications not known) [Positive polypeptide 4]	190			
LEQVNKKIEQSLKFIEKSDKLLENVNKGKCEAAAKK (not fully specified; also: modifications not known) [Positive polypeptide 5]	> 300			
B3	9.9	18.9	5.36	31.4
B4	10.4	17.9		20.7
B5	19.2	35.9		50.5
Ac-FAEFNQKINQVNEKIEESLEEIRKSDEELHNVNATT-NH2 [Compound 8]	3770			
Ac-SLEQVNKKIEQSLESLKKSDKINQSLEEVNKSDELLEAAAKK-NH2 [Compound 49]	> 8000			
B6	12.2	200	13.1	36.3
Ac-SDELVNKKIEFDKKINQSLKKIEESDKKKLEAAAKK-NH2 [Compound 51]	9.9	18.8	3.82	18.8
Ac-WDEFDKKIEEVNKKIEESLKKIEESDKKLEEVNKKLEAAAKK(Succinyl(4-O-cholesteryl))-NH2 [Compound 9]	95.7			
Ac-SLEQVNEKINQSLAFIRKSDEINQSDEEVNKSDELLEAAAKK-NH2 [Compound 50]	15.1	13.3	5.95	34.8
IEEVNKKIEESLKKIEESDKKLEEVNKKKEAAAKK (not fully specified; also: modifications not known) [Positive polypeptide 3]	> 300			
